# B1: Cytochrome c-552 wild type, P04164 (protein)
# chain: QADGAKIYAQCAGCHQQNGQGIPGAFPPLAGHVAEILAKEGGREYLILVLLYGLQGQIEVKGMKYNGVMSSFAQLKDEEIAAVLNHIATAWGDAKKVKGFKPFTAEEVKKLRAKKLTPQQVLAERKKLGLK
# Conditions: Thermus thermophilus, pH 7, sodium phosphate 50 mM, transition: 2, reversible: yes, whole UniProt chain shown; for denaturant midpoint (higher = more stable): 25 °C, GdnHCl
protein,measurement,setting,value
B1,denaturant midpoint (higher = more stable),absorbance,3.6 M
same,denaturant midpoint (higher = more stable),far-UV-CD,4.1 M
same,denaturant midpoint (higher = more stable),heme-CD,3.4 M
same,Tm,"Thermal, CD",95 °C
same,heat capacity change of unfolding,"Thermal, CD",0.31 kcal/mol/K
same,unfolding enthalpy (calorimetric),"Thermal, CD",30.4 kcal/mol
same,unfolding free energy,"Thermal, CD",3.11 kcal/mol
